# Test results published in US20160175440A1, “COMPOSITIONS AND METHODS FOR THE […] OF BURKHOLDERIA INFECTIONS” (Research Institute at Nationwide Children's Hospital, published 2016).
# B1: 386 bp BCAL0339-BCAL0340 intergenic region (T6SS gene cluster upstream) (dsDNA)
# DNA 1: TCTCAACGATTTA
# DNA 2: TAAATCGTTGAGA
# Molecular target: Integration host factor (IHF alpha/beta heterodimer) (Escherichia coli, UniProt P0A6X7;P0A6Y1 SEQ:1-99,SEQ:1-94)
# Test: footprint; DNase I footprint at 50 nM IHF; hypersensitive site indicative of DNA bending
# Conditions: tags: crystallographically pure IHF, gift of Howard Nash, NIH; no tag stated; label: 32P end label
# Integration host factor (IHF alpha/beta heterodimer), sequence (P0A6X7 whole entry, chain 1 of 2): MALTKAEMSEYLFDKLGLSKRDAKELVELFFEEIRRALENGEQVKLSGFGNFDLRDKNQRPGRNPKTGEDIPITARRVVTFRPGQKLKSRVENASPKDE
# Integration host factor (IHF alpha/beta heterodimer), sequence (P0A6Y1 whole entry, chain 2 of 2): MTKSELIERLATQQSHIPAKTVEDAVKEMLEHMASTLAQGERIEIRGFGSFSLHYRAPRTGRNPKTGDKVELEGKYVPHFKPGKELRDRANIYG
binder,measurement,value
B1,binding result,binds
